Test [1] addresses T1, human CD30 (commercial, conjugated to digoxigenin) (human, UniProt P28908 19-379, limits assumed, conjugated to digoxigenin (DIG)).
T1 sequence (looked up): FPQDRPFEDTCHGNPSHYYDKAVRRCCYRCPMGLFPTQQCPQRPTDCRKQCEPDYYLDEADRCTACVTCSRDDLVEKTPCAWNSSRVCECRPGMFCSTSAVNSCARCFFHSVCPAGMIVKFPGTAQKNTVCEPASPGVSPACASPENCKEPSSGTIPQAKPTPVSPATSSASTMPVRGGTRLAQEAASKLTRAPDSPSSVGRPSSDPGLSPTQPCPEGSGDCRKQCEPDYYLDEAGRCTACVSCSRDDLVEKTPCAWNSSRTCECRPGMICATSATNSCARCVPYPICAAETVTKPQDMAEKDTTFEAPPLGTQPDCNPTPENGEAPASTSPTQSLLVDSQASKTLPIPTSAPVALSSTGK
Briefly: AlphaScreen competition vs biotin-WT AC10. For orientation: Alpha assays give light when donor and acceptor beads are brought close together.

For test [2], the target named is T2, CD30 fused to the Fc region of IgG1 (R&D Systems) (UniProt P28908 19-379).
T2 sequence (looked up): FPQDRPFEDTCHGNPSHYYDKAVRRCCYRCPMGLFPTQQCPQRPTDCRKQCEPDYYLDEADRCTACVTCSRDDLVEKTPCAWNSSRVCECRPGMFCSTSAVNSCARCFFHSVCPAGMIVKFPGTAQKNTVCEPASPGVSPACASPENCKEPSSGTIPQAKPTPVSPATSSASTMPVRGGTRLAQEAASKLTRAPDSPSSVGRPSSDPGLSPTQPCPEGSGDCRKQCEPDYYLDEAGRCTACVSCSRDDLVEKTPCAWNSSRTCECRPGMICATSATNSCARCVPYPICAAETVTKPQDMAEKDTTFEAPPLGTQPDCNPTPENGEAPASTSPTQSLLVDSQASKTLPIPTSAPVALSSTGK
Description: SPR, CD30-Fc on Protein A chip.

Test [3] deals with T1, human CD30 (commercial, conjugated to …). Briefly: AlphaScreen competition.

B1: AC10 H1/L3 full length antibody (antibody, V domains shown)
VH: QIQLVQSGPEVKKPGASVKVSCKASGYTFTDYYITWVRQAPGQGLEWMGWIYPGSGNTKYNEKFQGRVTITVDTSASTAYMELSSLRSEDTAVYFCANYGNYWFAYWGQGTLVTVSS
VL: DIVLTQSPDSLAVSLGERATINCKASQSVDFDGDSYMNWYQQKPGQPPKVLIYAASNLESGIPARFSGSGSGTDFTLTINSLEAEDAATYYCQQSNEDPWTFGGGTKVEIK
One may read the IC50 as the point on the concentration scale where inhibition reaches its midpoint. A word on the Kd: it is the equilibrium constant for the complex coming apart. Low values mean a tighter complex, high ones a looser complex. Regarding B1, in test [1], the “Fold IC50 vs WT” value turned out to be 0.18 fold and the IC50 was 17.4 nM. For the same molecule, in test [2], the “Fold KD vs WT” value came to 0.67 fold and the equilibrium dissociation constant (Kd) was 5.09 nM.

B2: AC10 H3/L3 full length antibody (antibody, V domains shown)
VH: QIQLVQSGPEVKKPGASVKVSCKASGYTFTDYYITWVRQAPGQGLEWMGWIYPGSGNTKYNEKFQGRFVFSVDTSASTAYLQISSLKAEDTAVYFCANYGNYWFAYWGQGTLVTVSS
VL: DIVLTQSPDSLAVSLGERATINCKASQSVDFDGDSYMNWYQQKPGQPPKVLIYAASNLESGIPARFSGSGSGTDFTLTINSLEAEDAATYYCQQSNEDPWTFGGGTKVEIK
Consider B2, for which, in test [1], the “Fold IC50 vs WT” value was 1.59 fold and the IC50 was 1.99 nM. In test [2], the “Fold KD vs WT” value was 1.45 fold and the affinity, expressed as Kd, was 2.33 nM.

B3: AC10 H3/L3.65 (antibody, IgG1, name in Kabat numbering, V domains shown)
VH: QIQLVQSGPEVKKPGASVKVSCKASGYTFTDYYITWVRQAPGQGLEWMGWIYPGSGNTKYNEKFQGRFVFSVDTSASTAYLQISSLKAEDTAVYFCANYGNYWFAYWGQGTLVTVSS
VL: DIVLTQSPDSLAVSLGERATINCKASQSVDFDGDSYMNWYQQKPGQPPKVLIYAASNLESGIPARFSGSGSGTDFTLTINSLEAEDAATYYCQQSNEDPFTFGGGTKVEIK
For B3, in test [3], the “Fold IC50 vs H3/L3” value is 0.34 fold.

B4: AC10 H2/L3 full length antibody (antibody, V domains shown)
VH: QIQLVESGGGLVKPGGSLRLSCAASGYTFTDYYITWVRQAPGQGLEWMGWIYPGSGNTKYNEKFQGRVTMTVDTSTSTAYMELSSLRSEDTAVYFCANYGNYWFAYWGQGTLVTVSS
VL: DIVLTQSPDSLAVSLGERATINCKASQSVDFDGDSYMNWYQQKPGQPPKVLIYAASNLESGIPARFSGSGSGTDFTLTINSLEAEDAATYYCQQSNEDPWTFGGGTKVEIK
Turning to B4, in test [1], the “Fold IC50 vs WT” value is 0.12 fold and the half-maximal inhibitory concentration (IC50) turned out to be 27.2 nM. Moreover, in test [2], the “Fold KD vs WT” value came to 0.5 fold and the Kd was determined as 6.75 nM.

B5: AC10 H3/L3.62 (antibody, IgG1, name in Kabat numbering, V domains shown)
VH: QIQLVQSGPEVKKPGASVKVSCKASGYTFTDYYITWVRQAPGQGLEWMGWIYPGSGNTKYNEKFQGRFVFSVDTSASTAYLQISSLKAEDTAVYFCANYGNYWFAYWGQGTLVTVSS
VL: DIVLTQSPDSLAVSLGERATINCKASQSVDFDGDSYMNWYQQKPGQPPKVLIYAASNLESGIPARFSGSGSGTDFTLTINSLEAEDAATYYCQQSNELPWTFGGGTKVEIK
Regarding B5, the “Fold IC50 vs H3/L3” value in test [3] was 0.46 fold.

B6: AC10 H3/L3.60 (antibody, IgG1, name in Kabat numbering, V domains shown)
VH: QIQLVQSGPEVKKPGASVKVSCKASGYTFTDYYITWVRQAPGQGLEWMGWIYPGSGNTKYNEKFQGRFVFSVDTSASTAYLQISSLKAEDTAVYFCANYGNYWFAYWGQGTLVTVSS
VL: DIVLTQSPDSLAVSLGERATINCKASQSVDFDGDSYMNWYQQKPGQPPKVLIYAASNLESGIPARFSGSGSGTDFTLTINSLEAEDAATYYCQQSNEFPWTFGGGTKVEIK
Take B6: the “Fold IC50 vs H3/L3” value in test [3] is 0.02 fold.

B7: AC10 H1/L0 full length antibody (antibody, V domains shown)
VH: QIQLVQSGPEVKKPGASVKVSCKASGYTFTDYYITWVRQAPGQGLEWMGWIYPGSGNTKYNEKFQGRVTITVDTSASTAYMELSSLRSEDTAVYFCANYGNYWFAYWGQGTLVTVSS
VL: DIVLTQSPASLAVSLGQRATISCKASQSVDFDGDSYMNWYQQKPGQPPKVLIYAASNLESGIPARFSGSGSGTDFTLNIHPVEEEDAATYYCQQSNEDPWTFGGGTKLEIK
For the molecule B7, in test [1], the “Fold IC50 vs WT” value is 0.32 fold and the IC50 came to 9.77 nM. In addition, in test [2], the “Fold KD vs WT” value was 0.53 fold and binding was characterised by a dissociation constant (Kd) of 6.39 nM.

B8: AC10 H1/L1 full length antibody (antibody, V domains shown)
VH: QIQLVQSGPEVKKPGASVKVSCKASGYTFTDYYITWVRQAPGQGLEWMGWIYPGSGNTKYNEKFQGRVTITVDTSASTAYMELSSLRSEDTAVYFCANYGNYWFAYWGQGTLVTVSS
VL: DIVLTQSPATLSLSPGERATLSCRASQSVDFDGDSYMNWYQQKPGQPPKVLIYAASNLESGIPARFSGSGSGTDFTLTISSLQPEDFATYYCQQSNEDPWTFGGGTKVEIK
B8: in test [1], the “Fold IC50 vs WT” value is 0.11 fold and the IC50 amounted to 27.7 nM. Also, in test [2], the “Fold KD vs WT” value was found to be 0.6 fold and the Kd came out at 5.63 nM.

B9: AC10 H3/L3.64 (antibody, IgG1, name in Kabat numbering, V domains shown)
VH: QIQLVQSGPEVKKPGASVKVSCKASGYTFTDYYITWVRQAPGQGLEWMGWIYPGSGNTKYNEKFQGRFVFSVDTSASTAYLQISSLKAEDTAVYFCANYGNYWFAYWGQGTLVTVSS
VL: DIVLTQSPDSLAVSLGERATINCKASQSVDFDGDSYMNWYQQKPGQPPKVLIYAASNLESGIPARFSGSGSGTDFTLTINSLEAEDAATYYCQQSNETPWTFGGGTKVEIK
Take B9: in test [3], the “Fold IC50 vs H3/L3” value stood at 0.14 fold.

B10: AC10 H1/L2 full length antibody (antibody, V domains shown)
VH: QIQLVQSGPEVKKPGASVKVSCKASGYTFTDYYITWVRQAPGQGLEWMGWIYPGSGNTKYNEKFQGRVTITVDTSASTAYMELSSLRSEDTAVYFCANYGNYWFAYWGQGTLVTVSS
VL: DIVLTQSPSSLSASVGDRVTITCRASQSVDFDGDSYMNWYQQKPGQPPKVLIYAASNLESGIPARFSGSGSGTDFTLTISSLQPEDFATYYCQQSNEDPWTFGGGTKVEIK
In the case of B10, in test [1], the “Fold IC50 vs WT” value turned out to be 0.07 fold and the IC50 was 45.3 nM. For the same molecule, in test [2], the “Fold KD vs WT” value was 0.45 fold and the Kd was found to be 7.55 nM.

B11: AC10 H3/L3.58 (antibody, IgG1, name in Kabat numbering, V domains shown)
VH: QIQLVQSGPEVKKPGASVKVSCKASGYTFTDYYITWVRQAPGQGLEWMGWIYPGSGNTKYNEKFQGRFVFSVDTSASTAYLQISSLKAEDTAVYFCANYGNYWFAYWGQGTLVTVSS
VL: DIVLTQSPDSLAVSLGERATINCKASQSVDFDGDSYMNWYQQKPGQPPKVLIYAASNLESGIPARFSGSGSGTDFTLTINSLEAEDAATYYCQQSNSDPWTFGGGTKVEIK
Regarding B11, the “Fold IC50 vs H3/L3” value in test [3] was 0.49 fold.

B12: AC10 H3/L3.66 (antibody, IgG1, name in Kabat numbering, V domains shown)
VH: QIQLVQSGPEVKKPGASVKVSCKASGYTFTDYYITWVRQAPGQGLEWMGWIYPGSGNTKYNEKFQGRFVFSVDTSASTAYLQISSLKAEDTAVYFCANYGNYWFAYWGQGTLVTVSS
VL: DIVLTQSPDSLAVSLGERATINCKASQSVDFDGDSYMNWYQQKPGQPPKVLIYAASNLESGIPARFSGSGSGTDFTLTINSLEAEDAATYYCQQSNEDPITFGGGTKVEIK
Regarding B12, the “Fold IC50 vs H3/L3” value in test [3] is 0 fold.

B13: AC10 H3/L3.63 (antibody, IgG1, name in Kabat numbering, V domains shown)
VH: QIQLVQSGPEVKKPGASVKVSCKASGYTFTDYYITWVRQAPGQGLEWMGWIYPGSGNTKYNEKFQGRFVFSVDTSASTAYLQISSLKAEDTAVYFCANYGNYWFAYWGQGTLVTVSS
VL: DIVLTQSPDSLAVSLGERATINCKASQSVDFDGDSYMNWYQQKPGQPPKVLIYAASNLESGIPARFSGSGSGTDFTLTINSLEAEDAATYYCQQSNESPWTFGGGTKVEIK
Consider B13, for which, in test [3], the “Fold IC50 vs H3/L3” value came out at 0.57 fold.

The values are drawn from patent US7657380.
